The source of these data is patent US20260167721A1 (ABLEXIS, published 2026).

For test [1], the target named is T1, human CD3 (TCR/CD3 complex on the cell surface) (human, UniProt P07766 23-207; P04234 22-171; P09693 23-182).
T1 construct: whole, on cells; Native CD3 on human Pan-T cells or Jurkat wild-type cells; also called CD3 on Pan-T cells; CD3 on Jurkat WT cells
Put plainly: flow cytometry, Pan-T cells, 10 ug/mL.

Test [2] concerns the target T1, human CD3 (TCR/CD3 complex on the cell …). In words: flow cytometry, Jurkat WT gMFI over Jurkat KO gMFI, 10 ug/mL.
For test [3] the target is unchanged. In words: flow cytometry, Jurkat WT cells, 10 ug/mL. A general note: In flow cytometry, cells or beads pass a laser one at a time.
For test [4] the target is unchanged. In words: flow cytometry, Pan-T cells, 1 ug/mL.
Test [5] has the same target. Put plainly: flow cytometry, Jurkat WT gMFI over Jurkat KO gMFI, 1 ug/mL.
The target is the same in test [6]. Put plainly: flow cytometry, Jurkat WT cells, 1 ug/mL.

T1 sequence (P07766 23-207, chain 1 of 3): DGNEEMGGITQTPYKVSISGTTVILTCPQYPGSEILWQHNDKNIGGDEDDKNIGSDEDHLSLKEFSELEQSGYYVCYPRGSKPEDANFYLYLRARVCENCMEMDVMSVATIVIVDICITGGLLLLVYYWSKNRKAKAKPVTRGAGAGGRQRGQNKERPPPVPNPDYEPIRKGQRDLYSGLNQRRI
T1 sequence (P04234 22-171, chain 2 of 3): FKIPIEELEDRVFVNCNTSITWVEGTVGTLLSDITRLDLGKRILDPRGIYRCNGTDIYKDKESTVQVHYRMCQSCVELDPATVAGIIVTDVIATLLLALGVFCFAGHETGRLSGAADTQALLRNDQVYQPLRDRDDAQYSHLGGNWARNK
T1 sequence (P09693 23-182, chain 3 of 3): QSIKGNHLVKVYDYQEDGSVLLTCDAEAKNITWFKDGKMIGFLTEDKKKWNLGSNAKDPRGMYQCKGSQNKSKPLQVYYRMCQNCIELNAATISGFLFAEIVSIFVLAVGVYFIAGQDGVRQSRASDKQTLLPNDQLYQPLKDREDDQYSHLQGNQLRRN

B1: CD3 × CD33-BspAb121 (bispecific antibody)
chain 1: QTVVTQEPSLTVSPGGTVTLTCASSTGAVTSGYYPNWFQQKPGQAPRALIYSTSNKHSWTPARFSGSLLGGKAALTLSGVQPEDEAEYYCLLYYGGAYVFGCGTKVTVLGGGGSGGGGSGGGGSGGGGSEVQLVESGGGLVKPGGSLRLSCAASGFTFSSYSMNWVRQAPGKCLEWVSSISRSGTYIYYADSVKGRFTISRDNAKNSLYLQMNSLRAEDTAVYYCARERWELLYFDYWGQGTLVTVSSDKTHTCPPCPAPEFEGGPSVFLFPPKPKDTLMISRTPEVTCVVVDVSHEDPEVKFNWYVDGVEVHNAKTKPREEQYNSTYRVVSVLTVLHQDWLNGKEYKCKVSNKALPASIEKTISKAKGQPREPQVYTLPPCREEMTKNQVSLWCLVKGFYPSDIAVEWESNGQPENNYKTTPPVLDSDGSFFLYSKLTVDKSRWQQGNVFSCSVMHEALHNHYTQKSLSLSPGK
chain 2: EVQLVQSGAEVKKPGSSVKVSCKASGYTITDSNIHWVRQAPGQSLEWIGYIYPYNGGTDYNQKFKNRATLTVDNPTNTAYMELSSLRSEDTAFYYCVNGNPWLAYWGQGTLVTVSSASTKGPSVFPLAPSSKSTSGGTAALGCLVKDYFPEPVTVSWNSGALTSGVHTFPAVLQSSGLYSLSSVVTVPSSSLGTQTYICNVNHKPSNTKVDKRVEPKSCDKTHTCPPCPAPEFEGGPSVFLFPPKPKDTLMISRTPEVTCVVVDVSHEDPEVKFNWYVDGVEVHNAKTKPREEQYNSTYRVVSVLTVLHQDWLNGKEYKCKVSNKALPASIEKTISKAKGQPREPQVCTLPPSREEMTKNQVSLSCAVKGFYPSDIAVEWESNGQPENNYKTTPPVLDSDGSFFLVSKLTVDKSRWQQGNVFSCSVMHEALHNRFTQKSLSLSPGK
chain 3: DIQLTQSPSTLSASVGDRVTITCRASESLDNYGIRFLTWFQQKPGKAPKLLMYAASNQGSGVPSRFSGSGSGTEFTLTISSLQPDDFATYYCQQTKEVPWSFGQGTKVEVKRTVAAPSVFIFPPSDEQLKSGTASVVCLLNNFYPREAKVQWKVDNALQSGNSQESVTEQDSKDSTYSLSSTLTLSKADYEKHKVYACEVTHQGLSSPVTKSFNRGEC
Consider B1, for which the “% Positive” value in test [1] and in test [4] was 1.5% each time. The gMFI in test [1] came out at 1920 gMFI; in test [3], 2040 gMFI; in test [4] it was 1920 gMFI; in test [6] it was 1920 gMFI. Further, the “Jurkat WT/KO (Fold)” value in test [2] came to 1 fold; in test [5], 0.8 fold.

B2: CD3 × CD33-BspAb123 (bispecific antibody)
chain 1: QTVVTQEPSFSVSPGGTVTLTCGLNSGSVSTSYYPSWYQQTPGQTPRTLIYSTNTRSSGVPDRFSGSILGNKAALTITGAQADDESDYYCVLYMGSGIWVFGCGTKLTVLGGGGSGGGGSGGGGSGGGGSQVQLVQSGAEVKKPGASLKVSCKASGYTFTSYYMHWVRQAPGQCLEWMGIINPSNGNTISAQKFQGRVTMTRDTSTSTVYMEMSSLRSEDTAVYYCVRSWGYYVMDVWGQGTTVTVSSDKTHTCPPCPAPEFEGGPSVFLFPPKPKDTLMISRTPEVTCVVVDVSHEDPEVKFNWYVDGVEVHNAKTKPREEQYNSTYRVVSVLTVLHQDWLNGKEYKCKVSNKALPASIEKTISKAKGQPREPQVYTLPPCREEMTKNQVSLWCLVKGFYPSDIAVEWESNGQPENNYKTTPPVLDSDGSFFLYSKLTVDKSRWQQGNVFSCSVMHEALHNHYTQKSLSLSPGK
chain 2: EVQLVQSGAEVKKPGSSVKVSCKASGYTITDSNIHWVRQAPGQSLEWIGYIYPYNGGTDYNQKFKNRATLTVDNPTNTAYMELSSLRSEDTAFYYCVNGNPWLAYWGQGTLVTVSSASTKGPSVFPLAPSSKSTSGGTAALGCLVKDYFPEPVTVSWNSGALTSGVHTFPAVLQSSGLYSLSSVVTVPSSSLGTQTYICNVNHKPSNTKVDKRVEPKSCDKTHTCPPCPAPEFEGGPSVFLFPPKPKDTLMISRTPEVTCVVVDVSHEDPEVKFNWYVDGVEVHNAKTKPREEQYNSTYRVVSVLTVLHQDWLNGKEYKCKVSNKALPASIEKTISKAKGQPREPQVCTLPPSREEMTKNQVSLSCAVKGFYPSDIAVEWESNGQPENNYKTTPPVLDSDGSFFLVSKLTVDKSRWQQGNVFSCSVMHEALHNRFTQKSLSLSPGK
chain 3: DIQLTQSPSTLSASVGDRVTITCRASESLDNYGIRFLTWFQQKPGKAPKLLMYAASNQGSGVPSRFSGSGSGTEFTLTISSLQPDDFATYYCQQTKEVPWSFGQGTKVEVKRTVAAPSVFIFPPSDEQLKSGTASVVCLLNNFYPREAKVQWKVDNALQSGNSQESVTEQDSKDSTYSLSSTLTLSKADYEKHKVYACEVTHQGLSSPVTKSFNRGEC
On to B2, for which the “% Positive” value came to 1.4% in test [1] and 1.8% in test [4]. Further, the gMFI worked out at 1920 gMFI in test [1], 1710 gMFI in test [3], 1860 gMFI in test [4] and 1680 gMFI in test [6]. The “Jurkat WT/KO (Fold)” value in test [2] came to 0.8 fold; in test [5], 0.9 fold.

B3: CD3 × CD33-BspAb124 (bispecific antibody)
chain 1: not shown
chain 2: EVQLVQSGAEVKKPGSSVKVSCKASGYTITDSNIHWVRQAPGQSLEWIGYIYPYNGGTDYNQKFKNRATLTVDNPTNTAYMELSSLRSEDTAFYYCVNGNPWLAYWGQGTLVTVSSASTKGPSVFPLAPSSKSTSGGTAALGCLVKDYFPEPVTVSWNSGALTSGVHTFPAVLQSSGLYSLSSVVTVPSSSLGTQTYICNVNHKPSNTKVDKRVEPKSCDKTHTCPPCPAPEFEGGPSVFLFPPKPKDTLMISRTPEVTCVVVDVSHEDPEVKFNWYVDGVEVHNAKTKPREEQYNSTYRVVSVLTVLHQDWLNGKEYKCKVSNKALPASIEKTISKAKGQPREPQVCTLPPSREEMTKNQVSLSCAVKGFYPSDIAVEWESNGQPENNYKTTPPVLDSDGSFFLVSKLTVDKSRWQQGNVFSCSVMHEALHNRFTQKSLSLSPGK
chain 3: DIQLTQSPSTLSASVGDRVTITCRASESLDNYGIRFLTWFQQKPGKAPKLLMYAASNQGSGVPSRFSGSGSGTEFTLTISSLQPDDFATYYCQQTKEVPWSFGQGTKVEVKRTVAAPSVFIFPPSDEQLKSGTASVVCLLNNFYPREAKVQWKVDNALQSGNSQESVTEQDSKDSTYSLSSTLTLSKADYEKHKVYACEVTHQGLSSPVTKSFNRGEC
Turning to B3, the “% Positive” value in test [1] is 1%; in test [4] it was 1.5%. For the same molecule, the gMFI in test [1] is 1970 gMFI; in test [3], 1790 gMFI; in test [4] it was 1950 gMFI; in test [6], 1800 gMFI. In addition, the “Jurkat WT/KO (Fold)” value in test [2] and in test [5] was 0.9 fold each time.

B4: CD3 × CD33-BspAb122 (bispecific antibody)
chain 1: QTVVTQEPSFSVSPGGTVTLTCGLSSGSVSTSYYPSWYQQTPGQAPRTLIYSTNTRSSGVPDRFSGSILGNKAALTITGAQADDESDYYCVLYMGSGIWVFGCGTKLTVLGGGGSGGGGSGGGGSGGGGSEVQLVESGGGLVKPGGSLRLSCAASGFTVSNYSMNWVRQAPGKCLEWVSSISRSSSYIYYADSVKGRFTISRDNAKNSLFLQMNSLRAEDTAVYYCARERWELLYFDYWGQGTLVTVSSDKTHTCPPCPAPEFEGGPSVFLFPPKPKDTLMISRTPEVTCVVVDVSHEDPEVKFNWYVDGVEVHNAKTKPREEQYNSTYRVVSVLTVLHQDWLNGKEYKCKVSNKALPASIEKTISKAKGQPREPQVYTLPPCREEMTKNQVSLWCLVKGFYPSDIAVEWESNGQPENNYKTTPPVLDSDGSFFLYSKLTVDKSRWQQGNVFSCSVMHEALHNHYTQKSLSLSPGK
chain 2: EVQLVQSGAEVKKPGSSVKVSCKASGYTITDSNIHWVRQAPGQSLEWIGYIYPYNGGTDYNQKFKNRATLTVDNPTNTAYMELSSLRSEDTAFYYCVNGNPWLAYWGQGTLVTVSSASTKGPSVFPLAPSSKSTSGGTAALGCLVKDYFPEPVTVSWNSGALTSGVHTFPAVLQSSGLYSLSSVVTVPSSSLGTQTYICNVNHKPSNTKVDKRVEPKSCDKTHTCPPCPAPEFEGGPSVFLFPPKPKDTLMISRTPEVTCVVVDVSHEDPEVKFNWYVDGVEVHNAKTKPREEQYNSTYRVVSVLTVLHQDWLNGKEYKCKVSNKALPASIEKTISKAKGQPREPQVCTLPPSREEMTKNQVSLSCAVKGFYPSDIAVEWESNGQPENNYKTTPPVLDSDGSFFLVSKLTVDKSRWQQGNVFSCSVMHEALHNRFTQKSLSLSPGK
chain 3: DIQLTQSPSTLSASVGDRVTITCRASESLDNYGIRFLTWFQQKPGKAPKLLMYAASNQGSGVPSRFSGSGSGTEFTLTISSLQPDDFATYYCQQTKEVPWSFGQGTKVEVKRTVAAPSVFIFPPSDEQLKSGTASVVCLLNNFYPREAKVQWKVDNALQSGNSQESVTEQDSKDSTYSLSSTLTLSKADYEKHKVYACEVTHQGLSSPVTKSFNRGEC
With B4, the “% Positive” value stood at 1% in test [1] and 1.9% in test [4]. Besides, the gMFI in test [1] came to 2020 gMFI; in test [3], 1980 gMFI; in test [4], 2080 gMFI; in test [6], 1910 gMFI. Also, the “Jurkat WT/KO (Fold)” value in test [2] came to 1 fold; in test [5], 0.8 fold.
